From article PMC3949579 come the findings set out here.

Assay [1] deals with DBAIg (full recombinant mouse IgG2b antibody encoding the DBA/1J Ighv1-4 germline sequence) (mouse (DBA/1J) | mouse). In words: SPR.
Assay [2] addresses M2139Ig (full recombinant mouse IgG2b antibody with the M2139 sequence) (mouse). The assay is described as follows: SPR. On the technique in general: In SPR one partner is held on a chip, and binding of the other changes the refractive index at the surface.

One may read the Kd as a measure of binding affinity in units of concentration. As usually defined, the koff is the first-order rate constant of dissociation. What is called kon is a measure of how fast the partners come together. For the substance “triple-helical J1 peptide (synthetic peptide containing the J1 epitope of type II collagen)”, in assay [1], the dissociation constant Kd is 274 nM, the koff came to 0.00446 s⁻¹ and the kon worked out at 16300 M⁻¹ s⁻¹. Further, in assay [2], the equilibrium dissociation constant (Kd) is 38.8 nM, the off-rate constant (koff) was determined as 0.00268 s⁻¹ and the kon was 68900 M⁻¹ s⁻¹.
